# Laboratory results taken from patent publication US20230192839A1, “ANTIBODIES HAVING CONDITIONAL AFFINITY AND METHODS OF USE THEREOF” (PFIZER INC., priority 2017, published 2023).
# B1: P02_D09: anti-CD33 clone with conditional affinity; VH SEQ ID NO: 35, VL SEQ ID NO: 36; also as scFv in CAR (antibody, V domains shown)
# VH: QVQLVESGGGLVQAGGSLRLSCAASRRSSRSWAMHWVRQAPGKGLEWVAVISYDGRLKYYADSVKGRFTISRDNAEYLVYLQMNSLRAEDTAVYYCAAEEGDGGFFDYWGQGTLVTVSS
# VL: QSVLTQPPSASGTPGQRVTISCSGSSSNIGSNYVNWYQQLPGTAPKLLIYRNNERPSGVPDRFSGSKSGTSASLAISGLRSEDEADYYCAAWDGSLSGRGVFGTGTKLTVL
# modifications: Synthetic Antibody
# notes: also as scFv in CAR
# Tests used:
# MV4-11 target cells = assay: Proliferation of CD33-specific conditional CAR T cells after CAR or TCR stimulation, cell count by flow cytometry; assay type: cell-based, human; settings: 100 µM MTX vs no MTX, 7 days, FIG. 7
# Procedure: The example examines the proliferative capabilities of conditional CAR T cells containing an anti-CD33 antibody having conditional affinity after stimulation of the CAR T cell via either the CAR T cell’s i) CAR or ii) TCR. In addition, these were examined in both the presence and absence of methotrexate (MTX).
# The anti-CD33 clone used in this example was P02_D09. In addition, a tool T cell was prepared as described in Example 4, as were untransduced T cells. T cells from one PBMC donor were used for this experiment.
# (§1) The target cell line used in this assay was MV4-11, as described in Example 5.
# The assays were carried out in 96-well plates by culturing 100,000 T cells with various other reagents (depending on the assay), for each of the different T cells described above. In addition, each of the co-cultures contained either 100 µM MTX or 0 µM MTX. In both conditions, 1 mM leucovorin was supplemented to circumvent MTX toxicity. The T cells were stimulated by CAR or TCR as in Example 6. Cultures were maintained in a final volume of 100 ul of RPMI 1640 medium for 7 days at 37 C with 5% CO2. On day 7, cells were collected and counted via flow cytometry (BD LSR II) using 123Count eBeads (Thermo Fisher Scientific).
# [1] = tested on: MV4-11 target cells (which express CD33); assay: IL-2 and IFN-γ secretion by CD33-specific conditional CAR T cells after CAR or TCR stimulation; assay type: cell-based, human; settings: activation via anti-CD33 CAR by MV4-11 cells; 100 µM MTX; 24 hours; FIGS. 6A and 6C
# Procedure: The example examines the levels secretion of the cytokines IL-2 and IFN-γ by conditional CAR T cells containing an anti-CD33 antibody having conditional affinity, after stimulation of the CAR T cell via either i) the CAR in the CAR T cell or ii) the TCR in the CAR T cell. In addition, these were examined in both the presence and absence of methotrexate (MTX).
# The anti-CD33 clone used in this example was P02_D09. […] In addition, a tool T cell was prepared as described in Example 4, as were untransduced T cells.
# as §1
# Assays were carried out in 96-well plates by culturing 100,000 T cells with various other reagents (depending on the assay), for each of the different T cells described above. Each of the co-cultures contained either 100 µM MTX or 0 µM MTX. In both conditions, 1 mM leucovorin was supplemented to circumvent MTX toxicity. To stimulate the CAR T cells via the anti-CD33 CARs, 100,000 MV4-11 target cells (which express CD33) were included in the culture with the T cells. To stimulate the CAR T cells via the TCR, T cell Activation/Expansion Beads (Miltenyi) were included in the culture with the T cells (i.e. in the absence of target cells). […] The cytokines in the supernatant were measured using U-PLEX Th1/Th2 Combo plates (Meso-Scale Discovery; Rockville, MD) according to the manufacturer’s specifications.
# human CD33 = assay: Biacore SPR binding kinetics of anti-CD33 scFv-Fc clones with or without 10 µM MTX
# Outline: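 Kinetics by SPR at 37° C in 10 mM Hepes pH 7.4, 150 mM NaCl, 0.05% Tween-20, with or without 10 µM MTX. Double-referenced data fit globally to Langmuir with mass transport; KD = koff/kon. Where binding was too weak for kinetics, KD or KD limit estimated from response at highest analyte concentration or instrument detection limit.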
# [2] = CD33, 0 µM MTX, 37° C., pH 7.4, scFv-Fc
molecule,measurement,setting,value
B1,"proliferative ability, CAR stimulation, presence of MTX",MV4-11 target cells; CAR stimulation (CD33),dramatically diminished
same,"proliferation, TCR stimulation, presence of MTX",MV4-11 target cells; TCR stimulation (CD3/CD28),not affected by MTX
same,"IL-2 and IFN-γ production, CAR stimulation, presence of MTX",[1],reduced back to the level comparable to that of unstimulated T cells
same,affinity for CD33 in the presence of MTX as compared to absence (in words),human CD33; 10 µM MTX vs 0 µM MTX,significantly greater affinity toward CD33 (i.e. lower KD) in the absence of MTX than in the presence of MTX
same,"koff, kinetics toward antigen with 0 µM MTX",human CD33; [2],0.018 s⁻¹
same,"kon, kinetics toward antigen with 0 µM MTX",human CD33; [2],40000 M⁻¹ s⁻¹
same,Kd,"human CD33; CD33, 10 µM MTX, 37° C., pH 7.4, koff/kon, or estimated from binding response / limit of detection for weak interactions, read-out: KD, kinetics toward antigen with 10 µM MTX",> 9.29 µM
